PMC10877577 (ACS Chemical Biology, 2024)
Entries after “also recorded” stand apart in the source; their conditions may differ. Values belong to the molecule of their own block, whether it stands above or below them. Bridges are numbered along the chain shown (N, C = ends). Where no end group is shown, it is not given here.

Assays:
sdAbs = conditions: read-out: affinity of sdAb for hapten; cited from earlier work
[1] = system: MinoCAR-transduced PBMC against SupT1-EGFR+ target cells; format: cell-based; conditions: 0.1, 1 and 10 μM, 24 h, 1:2 E/T
Protocol: Transduced CAR T cells were determined by staining for the transduction marker RQR8 and normalized by the addition of nontransduced T cells. Effector cells were cocultured with 5.0 × 10^4 number of target cells (SupT1-NT, SupT1-EGFR+, SKOV3-mKate) to achieve the desired effector cell to target ratio. […] Cocultures were incubated for 24–72 h at 37 °C and 5% CO2. After incubation, plates were centrifuged at 400g for 5 min, and the supernatant containing secreted cytokines was collected for cytokine analysis. Cells were stained with anti-hCD34-APC and anti-CD3-PeCy7 to differentiate effector T cells and target cells. Cells were washed with 300 μL o PBS and stained with SYTOX Blue Dead Cell Stain dye. The percentage of target cell survival was measured relative to the number of live target cells cocultured with nonspecific CAR T cells or nontransduced PBMCs.

[2] = system: HEK-293T transduced with the aMinoC1 transmembrane receptor; assay: Flow cytometry of peptide-muIgG2a Fc binding to cells with aMinoC1 transmembrane receptor; format: cell-based, human; conditions: GWARA, HWAQA, PWAYS, QWAMM; increasing minocycline; caffeine 100 μM
Protocol: Flow cytometry was performed using the MACSQuant Analyzer 10 or MACSQuant X (Miltenyi Biotec). All flow cytometry data was analyzed using FlowJo v.7.6.2 software (Tree Star Inc., Ashland, OR). Cell staining was carried out by incubation with PBS containing the recommended concentration of antibodies at RT for 30 min. PBS washes were carried out between antibody staining. Cell viability was determined using viability dye SYTOX Blue Dead Cell Stain (ThermoFisher) prior to flow cytometric analysis. Cells were first gated for singlet population identified by FSC-H and FSC-A. Next, live cells were identified using a viability dye, followed by gating for target cell populations. The antibodies used in the study are as follows: CD3 PECy7 (Biolegend, 317334), Human CD34 APC-conjugated antibody (R&D system, FAB7227A), Human CD34 Alexa Fluor 488-conjugated antibody (R&D system, FAB7227G), Streptavidin PE (Biolegend, 405204), APC antihuman EGFR antibody (Biolegend, 352905), Alexa Fluor 488 antihuman EGFR antibody (Biolegend, 352907), PE anti-HA.11 Epitope Tag antibody (Biolegend, 901517), Anti-M13-HRP (Sino Biologics, 1197 mm05T-H), Anti-Myc-HRP (Genscript, A00863), and SYTOX Blue Dead Cell Stain (ThermoFisher, S10274).

aMinoC22 sdAb = assay: SPR of related small molecules against aMinoC22; format: binding, alpaca; conditions: molecules closely related to minocycline
Protocol: (§1) Binding assays were carried out using 1x HBS-EP+ running buffer. Various concentrations (2.5 μM with 2-fold serial dilutions) of the analyte were injected for 150 s at 30 μL/min with 150 s dissociation time. Glycine-HCl (pH 2.0) was used as the regeneration buffer for the sensor chips. For the rechallenge experiment, aMinoC1 was immobilized on a CM5 sensor chip and CX7C peptide-Fc conjugates were loaded at 100 nM and injected as the analyte for 150 s at 30 μL/min. Following the injection of peptide-Fc, a small molecule at 1 μM was injected for 300 s at 30 μL/min, using dual injection function on a Biacore 8k instrument, to dissociate the peptide-Fc from the aMinoC1-peptide complex. The system was then washed using HBS-P^+ buffer for 300 s at 30 μL/min prior to rechallenge with peptide-Fc. The cycle was repeated three times following a final dissociation step of 300 s. For the alanine scanning experiments, the anti-minocycline antibody (sdAb-muIgG2a-Fc fusion) was captured on a Protein A series S sensor chip, to a density of 3000 RU. […] Glycine-HCl (pH 1.5) was used as the regeneration buffer. In each case, flow cell 1 was used for reference subtraction, and a “0 concentration” sensogram of buffer alone was used as a double reference subtraction to factor for drift. Data analysis was carried out using Biacore T200 Evaluation Software, version 3.0, and Biacore Insight evaluation software. […]

aMinoC1 sdAb = assay: SPR of peptide-Fc or small-molecule analytes against aMinoC1; format: binding, alpaca; conditions: molecules closely related to minocycline
Protocol: as §1

aMinoC1-peptide complex = assay: SPR rechallenge: small-molecule-driven dissociation of peptide-Fc from immobilized aMinoC1; format: binding; conditions: peptide-Fc 100 nM, small molecule 1 μM
Protocol: Binding assays were carried out using 1x HBS-EP+ running buffer. Various concentrations (2.5 μM with 2-fold serial dilutions) of the analyte were injected for 150 s at 30 μL/min with 150 s dissociation time. Glycine-HCl (pH 2.0) was used as the regeneration buffer for the sensor chips. For the rechallenge experiment, aMinoC1 was immobilized on a CM5 sensor chip and CX7C peptide-Fc conjugates were loaded at 100 nM and injected as the analyte for 150 s at 30 μL/min. Following the injection of peptide-Fc, a small molecule at 1 μM was injected for 300 s at 30 μL/min, using dual injection function on a Biacore 8k instrument, to dissociate the peptide-Fc from the aMinoC1-peptide complex. The system was then washed using HBS-P^+ buffer for 300 s at 30 μL/min prior to rechallenge with peptide-Fc. The cycle was repeated three times following a final dissociation step of 300 s. For the alanine scanning experiments, the anti-minocycline antibody (sdAb-muIgG2a-Fc fusion) was captured on a Protein A series S sensor chip, to a density of 3000 RU. […] Glycine-HCl (pH 1.5) was used as the regeneration buffer. In each case, flow cell 1 was used for reference subtraction, and a “0 concentration” sensogram of buffer alone was used as a double reference subtraction to factor for drift. Data analysis was carried out using Biacore T200 Evaluation Software, version 3.0, and Biacore Insight evaluation software. The 1:1 Langmuir binding model was used to calculate the association (ka), dissociation (kd) rate constants, and equilibrium dissociation constant (KD).

[3] = target: anti-minocycline single-domain antibody clone 1 (aMinoC1 sdAb) (alpaca)
[4] = target: anti-minocycline single-domain antibody clone 1 (aMinoC1 sdAb) (alpaca); assay: SPR; Biacore T200; aMino sdAbs immobilized on a CM5 chip (4300-4600 RU); 1x HBS-EP+; analyte from 2.5 uM in 2-fold serial dilutions, 150 s at 30 uL/min, 150 s dissociation; 1:1 Langmuir model
[5] = target: anti-minocycline single-domain antibody clone 1 (aMinoC1 sdAb) (alpaca); remark: listed apart in the source
[6] = target: anti-minocycline single-domain antibody clone 1 (aMinoC1 sdAb) (alpaca); remark: listed apart in the source
minocycline = assay: SPR
[7] = target: T1, GWARA CX7C peptide-muIgG2a-Fc fusion; assay: ELISA; conditions: chain shown with the change
T1 chain: ACPGWARAFC

[8] = target: T2, QWAMM CX7C peptide-muIgG2a-Fc fusion (disulfide 1-9 (inferred); also: fused to muIgG2a Fc, end not given here); assay: SPR
T2 chain: CPQWAMMFC

[9] = target: T3, GWARA CX7C peptide-muIgG2a-Fc fusion (disulfide 2-10 (inferred); also: fused to muIgG2a Fc, end not given here); assay: SPR
T3 chain: ACPGWARAFC

[10] = target: T4, PWAYS CX7C peptide-muIgG2a-Fc fusion (disulfide 1-9 (inferred); also: fused to muIgG2a Fc, end not given here); assay: SPR
T4 chain: CPPWAYSFC

[11] = target: T5, HWAQA CX7C peptide-muIgG2a-Fc fusion (disulfide 1-9 (inferred); also: fused to muIgG2a Fc, end not given here); assay: SPR
T5 chain: CPHWAQAFC

Molecule: CC(=O)OC[C@]12[C@H](O)C(=O)C(C)=C[C@H]1O[C@@H]1[C@H](O)C[C@@]2(C)[C@]12CO2 [15-acetyl-deoxynivalenol]
Kd (sdAbs): 5000 to 215000 nM

Molecule: Cn1c(=O)c2c(ncn2C)n(C)c1=O [caffeine]
effect of other small molecules on MinoCAR cytotoxicity [1]: not affected
peptide-muIgG2a Fc binding to membrane-bound aMinoC1 in presence of small molecule [2]: no peptide-binding inhibition; also recorded: did not result in a decrease in peptide binding

Molecule: C[C@H]1c2cccc(O)c2C(=O)C2=C(O)[C@]3(O)C(=O)C(C(N)=O)=C(O)[C@@H](N(C)C)[C@@H]3[C@@H](O)[C@@H]21 [doxycycline]
binding to aMinoC22 (SPR) (aMinoC22 sdAb): Neither sdAb showed an interaction; also recorded: lack of binding
binding to aMinoC1 (SPR) (aMinoC1 sdAb): Neither sdAb showed an interaction; also recorded: lack of binding; also recorded: without cross-reactivity
GWARA-Fc dissociation from immobilized aMinoC1 on small-molecule injection (aMinoC1-peptide complex): No enhanced dissociation
peptide-Fc (HWAQA, PWAYS and QWAMM) dissociation from immobilised aMinoC1 on small-molecule injection (aMinoC1-peptide complex): No enhanced dissociation
effect of other small molecules on MinoCAR cytotoxicity [1]: not affected

Molecule: CN(Cc1cnc2nc(N)nc(N)c2n1)c1ccc(C(=O)N[C@@H](CCC(=O)O)C(=O)O)cc1 [methotrexate]
Kd (sdAbs): 29 to 515 nM
effect of other small molecules on MinoCAR cytotoxicity [1]: not affected

Molecule: Nc1c(Cl)c(Cl)nc(C(=O)O)c1Cl [picloram]
Kd (sdAbs): 3000 to 354000 nM

Molecule: O=C(Nc1ccc(Cl)cc1)Nc1ccc(Cl)c(Cl)c1 [triclocarbon]
Kd (sdAbs): 0.98 to 1.37 nM

IFN-y release by MinoUniCAR PBMCs (aMinoC1-CD8stk-CD28TM-CD28-41BBz) with the soluble aEGFR sdAb-GWARA adaptor, 0 uM against 10 uM minocycline [3]: 1570 pg/mL
Kd [4]: 111 nM
IFN-γ secretion by PBMCs transduced with the aMinoC1/GWARA-MyD88/CD40 module against the SG3S-peptide negative control, no minocycline; tuned down about 2-fold by increasing minocycline [5]: 520 pg/mL
IL12 secreted by T cells that co-express GWARA-flexi-IL12 and aMinoC1-KDEL without minocycline (retention); released up to 150 pg/mL on day 2 and 2.2 ug/mL on day 7 with minocycline up to 2.5 uM [6]: 450 pg/mL
Molecule: GWARA CX7C peptide-muIgG2a-Fc fusion

Kd [4]: 328 nM
Molecule: HWAQA CX7C peptide-muIgG2a-Fc fusion

Kd [4]: 283 nM
Molecule: PWAYS CX7C peptide-muIgG2a-Fc fusion

Kd [4]: 209 nM
Molecule: QWAMM CX7C peptide-muIgG2a-Fc fusion

Molecule: auxin
Kd (sdAbs): 500 to 20000 nM

ratio to parent (minocycline): 1.15
ratio to parent [7]: 0.18
B1: anti-minocycline single-domain antibody clone 1 (aMinoC1 sdAb) R64A (protein)
chain: QVQLESGGGLVQPGSSLRLSCAASGRTFSSYNIGWFRQAPKEREFVAAISWSGAATYYADSVKGRFTISRDNAKNTVYLQMNSLKPEDTAVYSCAAGRGWGTEAILDYWGQGTQVSSA

ratio to parent (minocycline): 0.88
ratio to parent [7]: 0.17
B2: anti-minocycline single-domain antibody clone 1 (aMinoC1 sdAb) R108A (protein)
chain: QVQLESGGGLVQPGSSLRLSCAASGRTFSSYNIGWFRQAPKEREFVAAISWSGARTYYADSVKGRFTISRDNAKNTVYLQMNSLKPEDTAVYSCAAGAGWGTEAILDYWGQGTQVSSA

ratio to parent (minocycline): 0.97
ratio to parent [7]: 0.15
B3: anti-minocycline single-domain antibody clone 1 (aMinoC1 sdAb) S35A (protein)
chain: QVQLESGGGLVQPGSSLRLSCAASGRTFASYNIGWFRQAPKEREFVAAISWSGARTYYADSVKGRFTISRDNAKNTVYLQMNSLKPEDTAVYSCAAGRGWGTEAILDYWGQGTQVSSA

ratio to parent (minocycline): 0.77
ratio to parent [7]: 0.12
B4: anti-minocycline single-domain antibody clone 1 (aMinoC1 sdAb) A63S (protein)
chain: QVQLESGGGLVQPGSSLRLSCAASGRTFSSYNIGWFRQAPKEREFVAAISWSGSRTYYADSVKGRFTISRDNAKNTVYLQMNSLKPEDTAVYSCAAGRGWGTEAILDYWGQGTQVSSA

ratio to parent (minocycline): 1.06
ratio to parent [7]: 0.25
B5: anti-minocycline single-domain antibody clone 1 (aMinoC1 sdAb) W58A (protein)
chain: QVQLESGGGLVQPGSSLRLSCAASGRTFSSYNIGWFRQAPKEREFVAAISASGARTYYADSVKGRFTISRDNAKNTVYLQMNSLKPEDTAVYSCAAGRGWGTEAILDYWGQGTQVSSA

koff [8]: 0.0043 s⁻¹
koff [9]: 0.017 s⁻¹
koff [10]: 0.0056 s⁻¹
koff [11]: 0.0058 s⁻¹
B6: anti-minocycline single-domain antibody clone 1 (aMinoC1 sdAb) (VHH)
VHH: QVQLESGGGLVQPGSSLRLSCAASGRTFSSYNIGWFRQAPKEREFVAAISWSGARTYYADSVKGRFTISRDNAKNTVYLQMNSLKPEDTAVYSCAAGRGWGTEAILDYWGQGTQVSSA

ratio to parent (minocycline): 1.7
ratio to parent [7]: 0.23
B7: anti-minocycline single-domain antibody clone 1 (aMinoC1 sdAb) G40A (protein)
chain: QVQLESGGGLVQPGSSLRLSCAASGRTFSSYNIAWFRQAPKEREFVAAISWSGARTYYADSVKGRFTISRDNAKNTVYLQMNSLKPEDTAVYSCAAGRGWGTEAILDYWGQGTQVSSA

ratio to parent (minocycline): 1.28
ratio to parent [7]: 0.17
B8: anti-minocycline single-domain antibody clone 1 (aMinoC1 sdAb) R28A (protein)
chain: QVQLESGGGLVQPGSSLRLSCAASGATFSSYNIGWFRQAPKEREFVAAISWSGARTYYADSVKGRFTISRDNAKNTVYLQMNSLKPEDTAVYSCAAGRGWGTEAILDYWGQGTQVSSA
